According to article PMC9533685, “NICD3 regulates the expression of MUC5AC and MUC2 by recruiting SMARCA4 and is involved in the differentiation of mucinous colorectal adenocarcinoma” (Molecular Oncology, 2022):

T1: His-tagged human NOTCH3 intracellular domain (aa 1665-2321) (human, UniProt Q9UM47 1665-2321)
T1 construct: human NOTCH3 intracellular domain, aa 1665-2321; also called His-NICD3; source: E. coli, purified (GeneCreate Biological Engineering)
T1 sequence (looked up): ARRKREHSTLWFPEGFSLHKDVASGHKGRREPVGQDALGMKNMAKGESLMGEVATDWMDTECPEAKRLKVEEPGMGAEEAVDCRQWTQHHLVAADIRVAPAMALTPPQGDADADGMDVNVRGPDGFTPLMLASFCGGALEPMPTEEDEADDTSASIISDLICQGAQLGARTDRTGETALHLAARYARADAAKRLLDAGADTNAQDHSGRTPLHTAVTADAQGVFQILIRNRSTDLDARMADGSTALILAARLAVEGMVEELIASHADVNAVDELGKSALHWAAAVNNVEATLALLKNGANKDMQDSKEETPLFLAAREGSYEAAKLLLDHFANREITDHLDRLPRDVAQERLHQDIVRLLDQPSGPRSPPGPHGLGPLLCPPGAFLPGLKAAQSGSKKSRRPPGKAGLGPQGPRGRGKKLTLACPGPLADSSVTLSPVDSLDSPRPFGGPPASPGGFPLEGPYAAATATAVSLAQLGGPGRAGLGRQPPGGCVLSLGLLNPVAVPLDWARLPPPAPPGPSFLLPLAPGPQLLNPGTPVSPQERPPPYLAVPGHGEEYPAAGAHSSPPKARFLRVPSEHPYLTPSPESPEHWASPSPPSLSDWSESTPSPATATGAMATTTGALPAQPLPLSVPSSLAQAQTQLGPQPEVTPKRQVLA


Biological target: T1, His-tagged human NOTCH3 intracellular …
Assay: pull-down; GST pull-down: purified GST-tagged SMARCA4 segments mixed with His-NICD3 on ice for 3 h, beads, five washes, elution with 15 mM reduced glutathione; blots with anti-GST and anti-His; GST as negative control
Details: both partners purified

binding result | Binder
binds | GST-tagged SMARCA4 BROMO domain (aa 1455-1566) (domain or fragment, human, UniProt P51532 1455-1566, looked up, also called SMART BROMO domain; source: E. coli, purified (GeneCreate Biological Engineering)) PPNLTKKMKKIVDAVIKYKDSSSGRQLSEVFIQLPSRKELPEYYELIRKPVDFKKIKERIRNHKYRSLNDLEKDVMLLCQNAQTFNLEGSLIYEDSIVLQSVFTSVRQKIEK
binds | MSDLPVKVIHVESGKILTGTDAPKAGQLEAWLEMNPGYEVAPRSD (domain or fragment, human, UniProt P51532 612-656, looked up, also called SMART BRK domain; source: E. coli, purified (GeneCreate Biological Engineering)) [GST-tagged SMARCA4 BRK domain (aa 612-656)]
